Target: T1, human FcγRIIaR extracellular domain, His-tagged (human, UniProt P12318 34-217)
T1 construct: also called human FcγRIIa (type R); FcgRIIaR; not shown: C-terminal His-tag
T1 chain: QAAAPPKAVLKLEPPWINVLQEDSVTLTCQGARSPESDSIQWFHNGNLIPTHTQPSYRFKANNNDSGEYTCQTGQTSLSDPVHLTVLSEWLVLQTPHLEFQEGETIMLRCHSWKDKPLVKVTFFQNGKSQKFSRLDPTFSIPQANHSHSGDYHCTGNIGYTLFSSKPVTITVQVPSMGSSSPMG
Test: SPR (BIACORE); KD of SG1 divided by KD of variant

Row | Binder | KD fold (SG1 = 1) [fold]
1 | MS_M103205H795-SG1/M103202L889-SK1 (antibody, human IgG1, kappa, Parent antibody with heavy chain constant region SG1; also called MS1032LO06-SG1; copies: 2 + 2) heavy: not shown light: DIVMTQSPATLSLSPGERATLSCTSSQSVYHANWLSWFQQKPGQPPKLLIYWASTLAYGVPSRFSGSGSGTDFTLTISSLQPEDAATYYCAGGYGGGRYAFGQGTKVEIKRTVAAPSVFIFPPSDEQLKSGTASVVCLLNNFYPREAKVQWKVDNALQSGNSQESVTEQDSKDSTYSLSSTLTLSKADYEKHKVYACEVTHQGLSSPVTKSFNRGEC | 1
2 | M103205H795-MY441/M103202L889-SK1 (antibody, human IgG1, kappa, copies: 2 + 2) heavy: QVTLKESGPVLVKPTETLTLTCTVSGIDLSHDDISWVRQAPGKGLEWVGIISYAGSTYYASWAKGRLTISKDTSKNQVVLTMTNMDPVDTATYYCARGVPAYSHGGDLWGQGTLVTVSSASTKGPSVFPLAPSSKSTSGGTAALGCLVKDYFPEPVTVSWNSGALTSGVHTFPAVLQSSGLYSLSSVVTVPSSSLGTQTYICNVNHKPSNTKVDKKVEPKSCDKTHTCPPCPAAELLTGPSVFLFPPKPKDTLMISRTPEVTCVVVDVSDEDPEVKFNWYVDGVEVHNAKTKPREEQYNSTYRVVSVLTVLHQDWLNGKEYKCKVSNKALPKPIEKTISKAKGQPREPQVYTLPPSREEMTKNQVSLTCLVKGFYPSDIAVEWESNGQPENNYKTTPPVLDSDGSFFLYSKLTVDKSRWQQGNVFSCSVMHEALHNHYTQKSLSLSP light: DIVMTQSPATLSLSPGERATLSCTSSQSVYHANWLSWFQQKPGQPPKLLIYWASTLAYGVPSRFSGSGSGTDFTLTISSLQPEDAATYYCAGGYGGGRYAFGQGTKVEIKRTVAAPSVFIFPPSDEQLKSGTASVVCLLNNFYPREAKVQWKVDNALQSGNSQESVTEQDSKDSTYSLSSTLTLSKADYEKHKVYACEVTHQGLSSPVTKSFNRGEC | 1.8
3 | M103205H795-MY446/M103202L889-SK1 (antibody, human IgG1, kappa, copies: 2 + 2) heavy: QVTLKESGPVLVKPTETLTLTCTVSGIDLSHDDISWVRQAPGKGLEWVGIISYAGSTYYASWAKGRLTISKDTSKNQVVLTMTNMDPVDTATYYCARGVPAYSHGGDLWGQGTLVTVSSASTKGPSVFPLAPSSKSTSGGTAALGCLVKDYFPEPVTVSWNSGALTSGVHTFPAVLQSSGLYSLSSVVTVPSSSLGTQTYICNVNHKPSNTKVDKKVEPKSCDKTHTCPPCPAHELLTGPSVFLFPPKPKDTLMISRTPEVTCVVVDVSDEDPEVKFNWYVDGVEVHNAKTKPREEQYNSTYRVVSVLTVLHQDWLNGKEYKCKVSNKALPKPIEKTISKAKGQPREPQVYTLPPSREEMTKNQVSLTCLVKGFYPSDIAVEWESNGQPENNYKTTPPVLDSDGSFFLYSKLTVDKSRWQQGNVFSCSVMHEALHNHYTQKSLSLSP light: DIVMTQSPATLSLSPGERATLSCTSSQSVYHANWLSWFQQKPGQPPKLLIYWASTLAYGVPSRFSGSGSGTDFTLTISSLQPEDAATYYCAGGYGGGRYAFGQGTKVEIKRTVAAPSVFIFPPSDEQLKSGTASVVCLLNNFYPREAKVQWKVDNALQSGNSQESVTEQDSKDSTYSLSSTLTLSKADYEKHKVYACEVTHQGLSSPVTKSFNRGEC | 2.3
4 | M103205H795-MY447/M103202L889-SK1 (antibody, human IgG1, kappa, copies: 2 + 2) heavy: QVTLKESGPVLVKPTETLTLTCTVSGIDLSHDDISWVRQAPGKGLEWVGIISYAGSTYYASWAKGRLTISKDTSKNQVVLTMTNMDPVDTATYYCARGVPAYSHGGDLWGQGTLVTVSSASTKGPSVFPLAPSSKSTSGGTAALGCLVKDYFPEPVTVSWNSGALTSGVHTFPAVLQSSGLYSLSSVVTVPSSSLGTQTYICNVNHKPSNTKVDKKVEPKSCDKTHTCPPCPAIELLTGPSVFLFPPKPKDTLMISRTPEVTCVVVDVSDEDPEVKFNWYVDGVEVHNAKTKPREEQYNSTYRVVSVLTVLHQDWLNGKEYKCKVSNKALPKPIEKTISKAKGQPREPQVYTLPPSREEMTKNQVSLTCLVKGFYPSDIAVEWESNGQPENNYKTTPPVLDSDGSFFLYSKLTVDKSRWQQGNVFSCSVMHEALHNHYTQKSLSLSP light: DIVMTQSPATLSLSPGERATLSCTSSQSVYHANWLSWFQQKPGQPPKLLIYWASTLAYGVPSRFSGSGSGTDFTLTISSLQPEDAATYYCAGGYGGGRYAFGQGTKVEIKRTVAAPSVFIFPPSDEQLKSGTASVVCLLNNFYPREAKVQWKVDNALQSGNSQESVTEQDSKDSTYSLSSTLTLSKADYEKHKVYACEVTHQGLSSPVTKSFNRGEC | 11.2
5 | M103205H795-MY442/M103202L889-SK1 (antibody, human IgG1, kappa, copies: 2 + 2) heavy: QVTLKESGPVLVKPTETLTLTCTVSGIDLSHDDISWVRQAPGKGLEWVGIISYAGSTYYASWAKGRLTISKDTSKNQVVLTMTNMDPVDTATYYCARGVPAYSHGGDLWGQGTLVTVSSASTKGPSVFPLAPSSKSTSGGTAALGCLVKDYFPEPVTVSWNSGALTSGVHTFPAVLQSSGLYSLSSVVTVPSSSLGTQTYICNVNHKPSNTKVDKKVEPKSCDKTHTCPPCPADELLTGPSVFLFPPKPKDTLMISRTPEVTCVVVDVSDEDPEVKFNWYVDGVEVHNAKTKPREEQYNSTYRVVSVLTVLHQDWLNGKEYKCKVSNKALPKPIEKTISKAKGQPREPQVYTLPPSREEMTKNQVSLTCLVKGFYPSDIAVEWESNGQPENNYKTTPPVLDSDGSFFLYSKLTVDKSRWQQGNVFSCSVMHEALHNHYTQKSLSLSP light: DIVMTQSPATLSLSPGERATLSCTSSQSVYHANWLSWFQQKPGQPPKLLIYWASTLAYGVPSRFSGSGSGTDFTLTISSLQPEDAATYYCAGGYGGGRYAFGQGTKVEIKRTVAAPSVFIFPPSDEQLKSGTASVVCLLNNFYPREAKVQWKVDNALQSGNSQESVTEQDSKDSTYSLSSTLTLSKADYEKHKVYACEVTHQGLSSPVTKSFNRGEC | 2.6
6 | M103205H795-MY265/M103202L889-SK1 (antibody, human IgG1, kappa, also called MS103205H795-MY265; copies: 2 + 2) heavy: QVTLKESGPVLVKPTETLTLTCTVSGIDLSHDDISWVRQAPGKGLEWVGIISYAGSTYYASWAKGRLTISKDTSKNQVVLTMTNMDPVDTATYYCARGVPAYSHGGDLWGQGTLVTVSSASTKGPSVFPLAPSSKSTSGGTAALGCLVKDYFPEPVTVSWNSGALTSGVHTFPAVLQSSGLYSLSSVVTVPSSSLGTQTYICNVNHKPSNTKVDKKVEPKSCDKTHTCPPCPAPELLTGPSVFLFPPKPKDTLMISRTPEVTCVVVDVSDEDPEVKFNWYVDGVEVHNAKTKPREEQYNSTYRVVSVLTVLHQDWLNGKEYKCKVSNKALPKPIEKTISKAKGQPREPQVYTLPPSREEMTKNQVSLTCLVKGFYPSDIAVEWESNGQPENNYKTTPPVLDSDGSFFLYSKLTVDKSRWQQGNVFSCSVMHEALHNHYTQKSLSLSP light: DIVMTQSPATLSLSPGERATLSCTSSQSVYHANWLSWFQQKPGQPPKLLIYWASTLAYGVPSRFSGSGSGTDFTLTISSLQPEDAATYYCAGGYGGGRYAFGQGTKVEIKRTVAAPSVFIFPPSDEQLKSGTASVVCLLNNFYPREAKVQWKVDNALQSGNSQESVTEQDSKDSTYSLSSTLTLSKADYEKHKVYACEVTHQGLSSPVTKSFNRGEC | 2.5
7 | M103205H795-MY444/M103202L889-SK1 (antibody, human IgG1, kappa, copies: 2 + 2) heavy: QVTLKESGPVLVKPTETLTLTCTVSGIDLSHDDISWVRQAPGKGLEWVGIISYAGSTYYASWAKGRLTISKDTSKNQVVLTMTNMDPVDTATYYCARGVPAYSHGGDLWGQGTLVTVSSASTKGPSVFPLAPSSKSTSGGTAALGCLVKDYFPEPVTVSWNSGALTSGVHTFPAVLQSSGLYSLSSVVTVPSSSLGTQTYICNVNHKPSNTKVDKKVEPKSCDKTHTCPPCPAFELLTGPSVFLFPPKPKDTLMISRTPEVTCVVVDVSDEDPEVKFNWYVDGVEVHNAKTKPREEQYNSTYRVVSVLTVLHQDWLNGKEYKCKVSNKALPKPIEKTISKAKGQPREPQVYTLPPSREEMTKNQVSLTCLVKGFYPSDIAVEWESNGQPENNYKTTPPVLDSDGSFFLYSKLTVDKSRWQQGNVFSCSVMHEALHNHYTQKSLSLSP light: DIVMTQSPATLSLSPGERATLSCTSSQSVYHANWLSWFQQKPGQPPKLLIYWASTLAYGVPSRFSGSGSGTDFTLTISSLQPEDAATYYCAGGYGGGRYAFGQGTKVEIKRTVAAPSVFIFPPSDEQLKSGTASVVCLLNNFYPREAKVQWKVDNALQSGNSQESVTEQDSKDSTYSLSSTLTLSKADYEKHKVYACEVTHQGLSSPVTKSFNRGEC | 7.9
8 | M103205H795-MY443/M103202L889-SK1 (antibody, human IgG1, kappa, copies: 2 + 2) heavy: QVTLKESGPVLVKPTETLTLTCTVSGIDLSHDDISWVRQAPGKGLEWVGIISYAGSTYYASWAKGRLTISKDTSKNQVVLTMTNMDPVDTATYYCARGVPAYSHGGDLWGQGTLVTVSSASTKGPSVFPLAPSSKSTSGGTAALGCLVKDYFPEPVTVSWNSGALTSGVHTFPAVLQSSGLYSLSSVVTVPSSSLGTQTYICNVNHKPSNTKVDKKVEPKSCDKTHTCPPCPAEELLTGPSVFLFPPKPKDTLMISRTPEVTCVVVDVSDEDPEVKFNWYVDGVEVHNAKTKPREEQYNSTYRVVSVLTVLHQDWLNGKEYKCKVSNKALPKPIEKTISKAKGQPREPQVYTLPPSREEMTKNQVSLTCLVKGFYPSDIAVEWESNGQPENNYKTTPPVLDSDGSFFLYSKLTVDKSRWQQGNVFSCSVMHEALHNHYTQKSLSLSP light: DIVMTQSPATLSLSPGERATLSCTSSQSVYHANWLSWFQQKPGQPPKLLIYWASTLAYGVPSRFSGSGSGTDFTLTISSLQPEDAATYYCAGGYGGGRYAFGQGTKVEIKRTVAAPSVFIFPPSDEQLKSGTASVVCLLNNFYPREAKVQWKVDNALQSGNSQESVTEQDSKDSTYSLSSTLTLSKADYEKHKVYACEVTHQGLSSPVTKSFNRGEC | 1.7
9 | M103205H795-MY445/M103202L889-SK1 (antibody, human IgG1, kappa, copies: 2 + 2) heavy: QVTLKESGPVLVKPTETLTLTCTVSGIDLSHDDISWVRQAPGKGLEWVGIISYAGSTYYASWAKGRLTISKDTSKNQVVLTMTNMDPVDTATYYCARGVPAYSHGGDLWGQGTLVTVSSASTKGPSVFPLAPSSKSTSGGTAALGCLVKDYFPEPVTVSWNSGALTSGVHTFPAVLQSSGLYSLSSVVTVPSSSLGTQTYICNVNHKPSNTKVDKKVEPKSCDKTHTCPPCPAGELLTGPSVFLFPPKPKDTLMISRTPEVTCVVVDVSDEDPEVKFNWYVDGVEVHNAKTKPREEQYNSTYRVVSVLTVLHQDWLNGKEYKCKVSNKALPKPIEKTISKAKGQPREPQVYTLPPSREEMTKNQVSLTCLVKGFYPSDIAVEWESNGQPENNYKTTPPVLDSDGSFFLYSKLTVDKSRWQQGNVFSCSVMHEALHNHYTQKSLSLSP light: DIVMTQSPATLSLSPGERATLSCTSSQSVYHANWLSWFQQKPGQPPKLLIYWASTLAYGVPSRFSGSGSGTDFTLTISSLQPEDAATYYCAGGYGGGRYAFGQGTKVEIKRTVAAPSVFIFPPSDEQLKSGTASVVCLLNNFYPREAKVQWKVDNALQSGNSQESVTEQDSKDSTYSLSSTLTLSKADYEKHKVYACEVTHQGLSSPVTKSFNRGEC | 1

From patent publication US20200317768A1 (published 2020)
